We go through two molecules from paper PMC2173853 (The Journal of Cell Biology, 2002).

T1: GST–Ykt6p (amino acids 1–195) (S. cerevisiae, UniProt P36015 1-195)
T1 sequence: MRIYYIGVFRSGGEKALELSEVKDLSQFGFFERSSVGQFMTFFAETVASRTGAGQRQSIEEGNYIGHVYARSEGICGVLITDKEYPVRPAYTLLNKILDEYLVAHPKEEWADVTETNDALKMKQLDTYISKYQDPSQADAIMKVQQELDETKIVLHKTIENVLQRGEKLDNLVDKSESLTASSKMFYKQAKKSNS

T2: heterodimeric GST–Sed5p–His10-Sly1p complex bound to beads (S. cerevisiae, UniProt Q01590;P22213)
T2 sequence 1: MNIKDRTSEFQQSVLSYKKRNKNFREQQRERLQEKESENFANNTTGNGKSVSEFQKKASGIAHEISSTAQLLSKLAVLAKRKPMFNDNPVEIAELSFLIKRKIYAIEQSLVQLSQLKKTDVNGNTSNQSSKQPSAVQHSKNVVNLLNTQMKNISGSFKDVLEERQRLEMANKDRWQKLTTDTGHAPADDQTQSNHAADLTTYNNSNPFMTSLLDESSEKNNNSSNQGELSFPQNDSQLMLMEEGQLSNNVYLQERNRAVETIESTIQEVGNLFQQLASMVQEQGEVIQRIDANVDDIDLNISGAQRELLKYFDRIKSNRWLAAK
T2 sequence 2: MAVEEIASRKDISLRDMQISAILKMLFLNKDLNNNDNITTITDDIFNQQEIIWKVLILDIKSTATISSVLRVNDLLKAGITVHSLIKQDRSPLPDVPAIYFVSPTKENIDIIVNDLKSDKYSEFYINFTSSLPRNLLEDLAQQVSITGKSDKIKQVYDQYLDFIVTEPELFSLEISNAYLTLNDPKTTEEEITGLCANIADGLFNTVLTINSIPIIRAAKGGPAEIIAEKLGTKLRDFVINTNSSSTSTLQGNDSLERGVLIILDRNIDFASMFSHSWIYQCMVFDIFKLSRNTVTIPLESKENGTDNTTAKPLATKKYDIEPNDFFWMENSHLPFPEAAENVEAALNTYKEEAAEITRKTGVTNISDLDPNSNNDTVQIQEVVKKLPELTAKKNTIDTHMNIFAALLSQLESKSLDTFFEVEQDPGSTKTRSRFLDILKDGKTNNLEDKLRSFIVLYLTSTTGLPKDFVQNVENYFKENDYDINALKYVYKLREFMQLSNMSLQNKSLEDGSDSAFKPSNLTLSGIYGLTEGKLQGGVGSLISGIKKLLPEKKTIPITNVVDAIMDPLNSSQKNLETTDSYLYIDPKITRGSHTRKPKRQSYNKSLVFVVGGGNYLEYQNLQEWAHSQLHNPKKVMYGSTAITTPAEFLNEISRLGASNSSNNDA

T3: His10-Sly1p (NH2-terminally His10-tagged full-length Sly1p) (S. cerevisiae, UniProt P22213 1-666)
T3 sequence: T2 sequence 2

B1: His6-Sec22p (amino acids 1–188) (domain or fragment)
chain: MIKSTLIYREDGLPLCTSVDNENDPSLFEQKQKVKIVVSRLTPQSATEATLESGSFEIHYLKKSMVYYFVICESGYPRNLAFSYLNDIAQEFEHSFANEYPKPTVRPYQFVNFDNFLQMTKKSYSDKKVQDNLDQLNQELVGVKQIMSKNIEDLLYRGDSLDKMSDMSSSLKETSKRYRKSAQKINFD
B2: GST–Sed5p (entire cytosolic region) (domain or fragment)
chain: T2 sequence 1

Assay in all cases: pull-down
Assay [1] addresses T1, GST–Ykt6p (amino acids 1–195).
The target of assay [2] is B2.
The target of assay [3] is T2, heterodimeric GST–Sed5p–His10-Sly1p ….
For assay [4], the target named is T3, His10-Sly1p (NH2-terminally …).

On to B1, for which, in assay [1], the binding result is listed as “binds”. Besides, the “stoichiometry N” value in assay [2] is 1.3 per Sed5p; in assay [3], 1.4 per Sed5p.
Take B2: the binding result in assay [4] is given as “binds”.
